{
  "source": "patent US20220228157A1",
  "about": "“GENE EDITING IN DIVERSE BACTERIA” (priority 2019, published 2022)",
  "key": {"M. smegmatis": {"system": "M. smegmatis", "assay": "Allelic recombination frequency, selective vs non-selective plates", "format": "cell-based, Mycobacterium smegmatis", "method": "A single colony of M. smegmatis was grown overnight to saturation. The next day 25 μL of dense culture was inoculated into 5 mL of fresh media in the evening and grown overnight to an OD600 of 0.9. Cells were pelleted at 4° C. by centrifugation at 3,500×g for 10 minutes and washed twice with 10 mL ice-cold 10% glycerol. Cells were resuspended in 360 μL ice-cold 10% glycerol and transferred along with 10 μL of DNA to a pre-chilled 0.2 cm electroporation cuvette.\nElectrocompetent cells were electroporated with 90-mer oligos at: 1 uM for E. coli, 50 μg for L. lactis, and 10 uM for C. crescentus. 70-mer oligos were used at 1 μg for M. smegmatis. All oligos were obtained from IDT and can be found under “Oligonucleotides for genome editing” in materials and methods. For dsDNA experiments L. lactis was electroporated with 1.5 μg purified linear dsDNA. Cells were electroporated using a Bio-Rad gene pulser set to 25 μF, 200 S2, and 1.8 kV for E. coli, 2.0 kV for L. lactis, and 1.5 kV for C. crescentus and to 1000Ω and 2.5 kV for M. smegmatis. […] Colonies were counted using a custom script in Fiji, and allelic recombination frequency was calculated by dividing the number of colonies on selective plates, with the number of colonies on non-selective plates."}, "E. coli": {"system": "E. coli", "assay": "Fifteen cycles of MAGE with pool of 15 oligos, editing efficiency by NGS", "format": "cell-based, Escherichia coli", "settings": "15 separate mutations, one week", "method": "E. coli populations expressing either an efficient SSAP (SEQ ID NO: 157), an efficient SSAP/SSB pair (SEQ ID NO: 157/SEQ ID NO: 384), or the widely-used Redβ were taken through fifteen cycles of MAGE and transformed each cycle with a 10 μM pool comprising 15 unique oligos. Editing efficiency at each targeted locus was measured by NGS and averaged (FIG. 3)."}, "E. coli SEER chassis": {"system": "E. coli SEER chassis", "assay": "SEER library selection (frequency and enrichment by NGS)", "format": "cell-based, Escherichia coli", "settings": "Broad RecT Library, 10 rounds of SEER", "method": "Therefore, it was determined whether by screening additional RecT variants, again exploiting the increased throughput of SEER compared to previous efforts, one might discover recombineering proteins further improved over Redβ and PapRecT. To this aim a second library was constructed, identifying a maximally diverse group of 109 RecT variants, 106 of which were synthesized successfully, which was called Broad RecT Library (see Methods for more details). Next, as previously described, 10 rounds of SEER selection was performed on Broad RecT Library (FIGS. 8A-8B), and upon plotting frequency against enrichment after the final selection, a clear winner emerged (FIG. 9A). […]\nNative resistance alleles were identified in each of the three species for resistance to rifampicin (rif) at the rpoB locus or streptomycin (stm) at the rpsL locus. The concentration of antibiotic necessary to confer a selective benefit to the resistant allele was determined for each strain. […]\nPrimers were designed to amplify a 215 bp product containing the barcode region of the SSAP libraries from the pARC8 plasmid and to add on Illumina adaptors. […] Barcoded amplicons were then purified with AMPure XP magnetic beads (Beckman Coulter), pooled, and the final pooled library was quantified with the NEBNext Library Quant Kit for Illumina (NEB). […]"}, "E. coli MG1655": {"system": "E. coli MG1655", "assay": "DIvERGE mutagenesis of gyrA, gyrB, parC, parE with ciprofloxacin selection", "format": "cell-based, Escherichia coli", "settings": "one round of DIvERGE"}},
  "data": [
    {"molecule": "PapRecT: SSAP from Pseudomonas aeruginosa, SEQ ID NO: 24, UniParc ID: UPI0001E9E6CB (protein, listed as Pseudomonas aeruginosa) MGTALTPLLTKFATRYEMGTTPEEVANTLKQTCFKGQVNDSQMVALLIVADQYKLNPFTKELYAFPDKNNGIVPVVGVDGWARIINENPQFDGMEFSMDQQGTECTCKIYRKDRSHAISATEYMAECKRNTQPWQSHPRRMLRHKAMIQCARLAFGFAGIYDQDEAERIVERDVTPAEQYEDVSEAICLIKDSPTMEDLQAAFSNAWKAYKTKGARDQLTAAKDQRKKELLDAPIDVEFEETGDDRAA", "values": [
      {"measurement": "Editing efficiency", "setting": "M. smegmatis", "result": "enabled high efficiency editing"}
    ]},
    {"molecule": "Redβ: Redβ SSAP from Enterobacteria phage λ, SEQ ID NO: 474 (protein, Bacteriophage Lambda) MSTALATLAGKLAERVGMDSVDPQELITTLRQTAFKCDASDAQFIALLIVANQYGLNPWTKEIYAFPDKQNGIVPVVGVDGWSRIINENQQFDGMDFEQDNESCTCRIYRKDRNHPICVTEWMDECRREPFKTREGREITGPWQSHPKRMLRHKAMIQCARLAFGFAGIYDKDEAERIVENTAYTAERQPERDITPVNDETMQEINTLLIALDKTWDDDLLPLCSQIFRRDIRASSELTQAEAVKALGFLKQKATEQKVAA", "values": [
      {"measurement": "Editing efficiency, averaged over targeted loci", "setting": "E. coli", "result": "~20", "unit": "%"}
    ]},
    {"molecule": "CspRecT: RecT SSAP (UniParc ID: UPI0001837D7F) from a phage of Collinsella stercoris (protein, Collinsella stercoris DSM 13279) MNQIVKFTDDSGLAVQVTPDDVRRYICENATEKEVGLFLQLCQTQRLNPFVKDAYLVKYGGAPASMITSYQVFNRRACRDANYDGIKSGVVVLRDGDVVHKRGAACYKKAGEELIGGWAEVRFKDGRETAYAEVALDDYSTGKSNWAKMPGVMIEKCAKAAAWRLAFPDTFQGMYAAEEMDQAQQPEQVRAQAEQPVDLQPIRELFKPYCEHFGITPAEGMTAVCGAVGAEGMHSMTEQQARRARAWMEEEMAAPAVEAEYEVVDEGEVF", "values": [
      {"measurement": "Frequency against enrichment after final selection", "setting": "E. coli SEER chassis", "result": "clear winner"},
      {"measurement": "Colonies relative to Redβ and PapRecT", "setting": "E. coli MG1655; 250 ng/mL CIP, 130 oligos", "result": "more than ten times as many colonies"},
      {"measurement": "Resistant variants produced", "setting": "E. coli MG1655; 1,000 ng/mL CIP", "result": "only the use of CspRecT produced resistant variants"}
    ]}
  ]
}
